Measured values taken from article PMC10397247.
Where two headings read alike, the source gives them in different places.

T1: P6-AA-12HGe-A
T1 chain: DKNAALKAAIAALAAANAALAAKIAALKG

T2: P6-AA-12HGe-T
T2 chain: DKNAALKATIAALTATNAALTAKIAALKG

T3: P6-AA-12HGe-H
T3 chain: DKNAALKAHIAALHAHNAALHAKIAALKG

T4: P6-AA-12HGe-R
T4 chain: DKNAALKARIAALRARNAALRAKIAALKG

T5: P6-AA-12HGe-M
T5 chain: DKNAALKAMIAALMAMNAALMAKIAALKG

T6: P6-AA-12HGe-W
T6 chain: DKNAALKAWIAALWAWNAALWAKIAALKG

T7: P6-AA-12HGe-Q
T7 chain: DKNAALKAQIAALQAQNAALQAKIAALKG

T8: P6-AA-12HGe-D
T8 chain: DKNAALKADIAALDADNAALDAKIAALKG

T9: P6-AA-12HGe-K
T9 chain: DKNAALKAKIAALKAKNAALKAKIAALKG

T10: P6-AA-12HGe-S
T10 chain: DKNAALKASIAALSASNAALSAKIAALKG

T11: 4H683-bN
T11 chain: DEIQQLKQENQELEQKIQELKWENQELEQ

T12: 4H575-bN
T12 chain: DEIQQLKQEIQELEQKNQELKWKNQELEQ

T13: 4H918-bN
T13 chain: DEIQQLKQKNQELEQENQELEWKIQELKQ

T14: 4H457-bN
T14 chain: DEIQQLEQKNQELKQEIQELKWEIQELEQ

T15: 4H797-bN
T15 chain: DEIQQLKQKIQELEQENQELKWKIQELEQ

T16: 4H754-bN
T16 chain: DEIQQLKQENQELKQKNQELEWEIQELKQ

T17: 4H3427-bN
T17 chain: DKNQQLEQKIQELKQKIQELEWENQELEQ

T18: 4H3926-bN
T18 chain: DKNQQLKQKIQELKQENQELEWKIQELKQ

T19: 4H968-bN
T19 chain: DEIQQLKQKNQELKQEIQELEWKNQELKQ

T20: 4H953-bN
T20 chain: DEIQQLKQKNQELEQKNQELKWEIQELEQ

T21: 4H780-bN
T21 chain: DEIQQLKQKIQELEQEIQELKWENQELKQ

T22: 4H855-bN
T22 chain: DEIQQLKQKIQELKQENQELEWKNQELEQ

T23: 4H3112-bN
T23 chain: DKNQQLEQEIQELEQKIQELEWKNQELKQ

T24: 4H346-bN
T24 chain: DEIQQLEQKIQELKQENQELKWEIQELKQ

T25: 4H4073-bN
T25 chain: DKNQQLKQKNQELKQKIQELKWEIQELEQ

T26: 4H3010-bN
T26 chain: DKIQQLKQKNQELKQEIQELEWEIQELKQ

T27: O8-bP
T27 chain: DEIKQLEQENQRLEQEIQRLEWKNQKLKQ

T28: 4H626-bN
T28 chain: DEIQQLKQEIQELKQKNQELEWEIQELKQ

T29: 4H3613-bN
T29 chain: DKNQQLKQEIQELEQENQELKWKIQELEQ

T30: 4H3462-bN
T30 chain: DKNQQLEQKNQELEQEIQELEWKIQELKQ

T31: 4H3497-bN
T31 chain: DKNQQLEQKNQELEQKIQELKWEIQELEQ

T32: 4H591-bN
T32 chain: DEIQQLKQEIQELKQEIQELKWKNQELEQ

T33: 4H3628-bN
T33 chain: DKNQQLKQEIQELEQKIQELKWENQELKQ

T34: 4H906-bN
T34 chain: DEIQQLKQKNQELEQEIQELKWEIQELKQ


Assays:
[1] = target: T1, P6-AA-12HGe-A; test: two-hybrid library CCmax; settings: mean of both orientations;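 further: natural log of median RNA to DNA barcode read ratio; higher means stronger binding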
[2] = target: T2, P6-AA-12HGe-T; test: two-hybrid library CCmax; settings: mean of both orientations;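 further: natural log of median RNA to DNA barcode read ratio; higher means stronger binding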
[3] = target: T3, P6-AA-12HGe-H; test: two-hybrid library CCmax; settings: mean of both orientations;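 further: natural log of median RNA to DNA barcode read ratio; higher means stronger binding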
[4] = target: T4, P6-AA-12HGe-R; test: two-hybrid library CCmax; settings: mean of both orientations;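 further: natural log of median RNA to DNA barcode read ratio; higher means stronger binding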
[5] = target: T5, P6-AA-12HGe-M; test: two-hybrid library CCmax; settings: mean of both orientations
[6] = target: T6, P6-AA-12HGe-W; test: two-hybrid library CCmax; settings: mean of both orientations
[7] = target: T7, P6-AA-12HGe-Q; test: two-hybrid library CCmax; settings: mean of both orientations
[8] = target: T8, P6-AA-12HGe-D; test: two-hybrid library CCmax
[9] = target: T9, P6-AA-12HGe-K; test: two-hybrid library CCmax; settings: mean of both orientations
[10] = target: T10, P6-AA-12HGe-S; test: two-hybrid library CCmax; settings: mean of both orientations
[11] = target: T11, 4H683-bN; test: two-hybrid library CCNG1
[12] = target: T12, 4H575-bN; test: two-hybrid library CCNG1
[13] = target: T13, 4H918-bN; test: two-hybrid library CCNG1
[14] = target: T14, 4H457-bN; test: two-hybrid library CCNG1
[15] = target: T15, 4H797-bN; test: two-hybrid library CCNG1
[16] = target: T16, 4H754-bN; test: two-hybrid library CCNG1
[17] = target: T17, 4H3427-bN; test: two-hybrid library CCNG1
[18] = target: T18, 4H3926-bN; test: two-hybrid library CCNG1
[19] = target: T19, 4H968-bN; test: two-hybrid library CCNG1
[20] = target: T20, 4H953-bN; test: two-hybrid library CCNG1
[21] = target: T21, 4H780-bN; test: two-hybrid library CCNG1
[22] = target: T22, 4H855-bN; test: two-hybrid library CCNG1
[23] = target: T23, 4H3112-bN; test: two-hybrid library CCNG1
[24] = target: T24, 4H346-bN; test: two-hybrid library CCNG1
[25] = target: T25, 4H4073-bN; test: two-hybrid library CCNG1
[26] = target: T26, 4H3010-bN; test: two-hybrid library CCNG1
[27] = target: T27, O8-bP; test: two-hybrid library CCNG1
[28] = target: T28, 4H626-bN; test: two-hybrid library CCNG1
[29] = target: T29, 4H3613-bN; test: two-hybrid library CCNG1
[30] = target: T30, 4H3462-bN; test: two-hybrid library CCNG1
[31] = target: T31, 4H3497-bN; test: two-hybrid library CCNG1
[32] = target: T32, 4H591-bN; test: two-hybrid library CCNG1
[33] = target: T33, 4H3628-bN; test: two-hybrid library CCNG1
[34] = target: T34, 4H906-bN; test: two-hybrid library CCNG1

Row | interaction score [1] | interaction score [2] | interaction score [3] | interaction score [4] | interaction score [5] | interaction score [6] | interaction score [7] | interaction score ([8]; mean of both orientations) | interaction score [9] | interaction score [10] | Binder | other results
1 | 1.19 | 1.2 | -0.211 | 1.09 | 1.12 | -1.08 | 1.76 | -1.9 | 1.68 | 0.0975 | DENAALEAQIAALQAQNAALQAEIAALEG [P5-AA-12HGe-Q] | 
2 | -0.0358 | -0.125 | -0.816 | 0.304 | 0.58 | -0.644 | 1.38 | -1.87 | 0.623 | -1.02 | DENAALEAAIAALAAANAALAAEIAALEG [P5-AA-12HGe-A] | 
3 | 1.15 | 1.54 | -0.103 | 0.594 | 0.995 | -0.0463 | 2.16 |  | 1.12 | -0.47 | DENAALEAMIAALMAMNAALMAEIAALEG [P5-AA-12HGe-M] | interaction score [8]: -1.48
4 | -0.0467 | -0.438 | -1.26 | 0.245 | -0.283 | -1.07 | 1.22 | -1.71 | 0.446 | -1.32 | DENAALEATIAALTATNAALTAEIAALEG [P5-AA-12HGe-T] | 
5 | -1.21 | -1.05 | -1.52 | -0.734 | -1.66 | -1.53 | -0.404 | -1.45 | -0.261 | -2.05 | DENAALEASIAALSASNAALSAEIAALEG [P5-AA-12HGe-S] | 
6 | -1.85 | -1.98 | -2.35 | -0.833 | -2.09 | -1.67 | -1.56 | -1.85 | -0.581 | -2.03 | DENAALEADIAALDADNAALDAEIAALEG [P5-AA-12HGe-D] | 

The remaining lines, values behind:

Row | Binder | interaction score [1] | interaction score [2] | interaction score [3] | interaction score [4] | interaction score [5] | interaction score [6] | interaction score [7] | interaction score ([8]; mean of both orientations) | interaction score [9] | interaction score [10] | other results
7 | DENAALEAYIAALYAYNAALYAEIAALEG [P5-AA-12HGe-Y] | -0.307 | -0.218 | -0.445 | -0.752 | 0.0241 | -0.852 | 0.323 | -1.93 | -0.203 | -1.51 | 
8 | DENAALEAEIAALEAENAALEAEIAALEG [P5-AA-12HGe-E] | 1.23 | 0.892 | 2.11 | 1.58 | 0.542 | -0.981 | 2.02 | -1.51 | 1.8 | -0.0947 | 
9 | DENAALEAWIAALWAWNAALWAEIAALEG [P5-AA-12HGe-W] | -0.131 | -0.564 | -1.46 | -1.34 | 0.011 | -1.05 | 0.162 | -1.67 | -2.03 | -0.198 | 
10 | DENAALEARIAALRARNAALRAEIAALEG [P5-AA-12HGe-R] | 0.13 | -0.204 | -1.35 | -1.36 | -0.376 | -1.7 | 1.15 | -0.685 | -0.748 | -0.593 | 
11 | DKIQQLKQKNQELKQEIQELEWEIQELKQ [4H3010-bN] |  |  |  |  |  |  |  |  |  |  | interaction score [11]: 1.02; interaction score [12]: -1.47; interaction score [13]: -0.536; interaction score [14]: -0.409; interaction score [15]: -0.873; interaction score [16]: -1.56; interaction score [17]: -0.668; interaction score [18]: -0.546; interaction score [19]: -1.13; interaction score [20]: -1.77; interaction score [21]: -0.214; interaction score [22]: -0.686; interaction score [23]: -1.33; interaction score [24]: -1.97; interaction score [25]: -1.32; interaction score [26]: -0.256
12 | DKNQQLEQKNQELEQEIQELEWKIQELKQ [4H3462-bN] |  |  |  |  |  |  |  |  |  |  | interaction score [27]: -2.6; interaction score [28]: 0.696; interaction score [18]: -0.216; interaction score [29]: -0.0373; interaction score [30]: 0.127; interaction score [31]: 0.781; interaction score [32]: -0.826; interaction score [33]: 0.522; interaction score [34]: -0.328
13 | DENAALEAHIAALHAHNAALHAEIAALEG [P5-AA-12HGe-H] | -1.29 | -1.15 | -1.62 | -1.38 | -1.41 | -2.54 | -0.057 | -1.79 | -1.26 | -2 | 
